Reference: doi:10.1101/2023.06.09.544295 (bioRxiv, 2023)

Key:
CMKLR1 = tested on: CMKLR1; parameters: method as in 4 sources, one per row (each row's own in cited_ref): ref [28] = [28]; PMID 25437209; doi:10.1371/journal.pone.0112925; 28 Graham K. L. A novel CMKLR1 small molecule antagonist suppresses CNS autoimmune inflammatory disease. PLoS One 9 , e112925 , doi: 10.1371/journal.pone.0112925 ( 2014 ). 25437209 PMC4249827 ||| ref [9] = [9]; PMID 25548799; doi:10.1007/s00011-014-0792-7; 9 Mariani F. & Roncucci L. Chemerin/chemR23 axis in inflammation onset and resolution. Inflamm Res 64 , 85 – 95 , doi: 10.1007/s00011-014-0792-7 ( 2015 ). 25548799 ||| ref [25]–[27] = [25]; PMID 17339491; doi:10.4049/jimmunol.178.6.3912; 25 Arita M. Resolvin E1 selectively interacts with leukotriene B4 receptor BLT1 and ChemR23 to regulate inflammation. J Immunol 178 , 3912 – 3917 , doi: 10.4049/jimmunol.178.6.3912 ( 2007 ). 17339491 || [26]; PMID 19906641; doi:10.1074/jbc.M109.044131; 26 Ohira T. Resolvin E1 receptor activation signals phosphorylation and phagocytosis. J Biol Chem 285 , 3451 – 3461 , doi: 10.1074/jbc.M109.044131 ( 2010 ). 19906641 PMC2823415 || [27]; PMID 25637017; doi:10.4049/jimmunol.1402166; 27 Herova M. , Schmid M. , Gemperle C. & Hersberger M. ChemR23, the receptor for chemerin and resolvin E1, is expressed and functional on M1 but not on M2 macrophages. J Immunol 194 , 2330 – 2337 , do ||| ref [2]–[5] = [2]; PMID 17635925; doi:10.1074/jbc.M700793200; 2 Goralski K. B. Chemerin, a novel adipokine that regulates adipogenesis and adipocyte metabolism. J Biol Chem 282 , 28175 – 28188 , doi: 10.1074/jbc.M700793200 ( 2007 ). 17635925 || [3]; PMID 17767914; doi:10.1016/j.bbrc.2007.08.104; 3 Roh S. G. Chemerin--a new adipokine that modulates adipogenesis via its own receptor. Biochem Biophys Res Commun 362 , 1013 – 1018 , doi: 10.1016/j.bbrc.2007.08.104 ( 2007 ). 17767914 || [4]; PMID 29848608; doi:10.1530/JOE-18-0174; 4 Helfer G. & Wu Q. F. Chemerin: a multifaceted adipokine involved in metabolic disorders. J Endocrinol 238 , R79 – R94 , doi: 10.1530/JOE-18-0174 ( 2018 ). 29848608 PMC6026924 || [5]; PMID 29279348; doi:10.1124/pr.116.013177; 5 Kennedy A. J. & Davenport A. P. International Union of Basic and Clinical Pharmacology CIII: Chemerin Receptors CMKLR1 (Chemerin(1)) and GPR1 (Chemerin(2)) Nomenclature, Pharmacology, and Function.; settings: cited from earlier work
Description: Other isoforms of chemerin due to cleavage at different sites of the C-terminal region have also been detected in vivo with ... || The apparent contradictory functional roles of CMKLR1 in inflammation may be associated with the spatiotemporal regulation of the inflammation processes in cells. It is possible that in the early stage of inflammation the CMKLR1 signaling is mainly pro-inflammatory by promoting chemotaxis and activation of DCs and macrophages; whereas at the late stage of inflammation CMKLR1 activation can induce pro-resolving pathways to dampen inflammation.

[1] = target: T1, wild type human CMKLR1 with the N-terminal 28-amino acid segment of human β2-adrenergic receptor fused to its … (Homo sapiens (Human), UniProt P07550); test: cryo-EM structure of co-purified complex; chemerin9 agonist, Gβ1γ2, scFv16 and apyrase (nucleotide-free); Gαi1 carries dominant negative mutations S47N/G203A/E245A/A326S
T1 chain: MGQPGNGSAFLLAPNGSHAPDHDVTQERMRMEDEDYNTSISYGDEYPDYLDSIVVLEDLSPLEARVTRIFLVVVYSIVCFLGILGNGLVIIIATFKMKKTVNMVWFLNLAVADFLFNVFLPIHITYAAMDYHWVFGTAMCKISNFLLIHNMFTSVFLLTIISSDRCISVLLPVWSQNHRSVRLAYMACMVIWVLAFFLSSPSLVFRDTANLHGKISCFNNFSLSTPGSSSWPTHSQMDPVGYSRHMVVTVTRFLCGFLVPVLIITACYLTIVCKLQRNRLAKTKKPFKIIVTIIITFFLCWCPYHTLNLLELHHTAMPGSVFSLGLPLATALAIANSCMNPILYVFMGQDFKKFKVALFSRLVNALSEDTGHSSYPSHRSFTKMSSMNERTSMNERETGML

[2] = tested on: primary human macrophages; test: Macrophage differentiation assay, cell surface marker expression by flow cytometry; assay type: cell-based
Description: HLA-DR is a class II major histocompatibility complex cell surface molecule, a signature cell marker for antigen presenting cells (APCs), while CD86 is a selective ligand for the costimulatory molecule CD28, the activation of which is indispensable for optimal T cell prime and activation; together, HLA-DR and CD86 are signature cell surface markers for the canonical M1-like macrophages. On the other hand, CD206, the mannose receptor (MMR), is a glycosylated surface protein belonging to the scavenger receptor family. Similarly, CD163, another member of the scavenger receptor family, is the receptor for hemoglobin-haptoglobin complex. The upregulation of CD206 and CD163 in macrophages has been associated with the anti-inflammatory and tissue-repair phenotype,[33].
To generate human peripheral blood-derived macrophages, buffy coat was isolated from leukapheresis cones by Ficoll-Paque centrifugation. Monocytes were enriched from human PBMC by CD14 beads positive selection (Miltenyi Biotec) and cultured in IMDM supplanted with 10% human AB serum (omega scientific, Cat# HS-20) for 7 days for them to differentiate to macrophages.
Differentiated macrophages were then replated to low-bind plate at 0.15 million cells per 24-well plate, in 500 µl medium overnight before stimulated with various condition. […] Data were acquired on Cytek Aurora flowcytometry, analysis on Flowjo. MFI quantifications were normalized to M0 condition, and statistically analyzed by 2-way ANOVA, with Dunnett’s multiple comparisons test, all groups were pair-analyzed with M0 group as reference.

[3] = MFI fold-change normalized to M0, chemerin9 10 ng/mL 72 hours, IFNg 10 ng/ml plus LPS 10 ng/ml, IL-10 10 ng/ml, n=4 donors, Fig. 1a

Molecule: C[N+](C)(C)CCC(=O)c1cccc2ccccc12.[I-] [α-NETA]
- potency against CMKLR1 (antagonist) (CMKLR1; small-molecule antagonist, ref [28]): low micromolar potency

Molecule: chemerin15: synthetic peptide corresponding to the 141–155 amino acid segment of chemerin (AGEDPHSFYFPGQFA; UniProt Q99969 141-155, looked up, fragment)
- CMKLR1 agonism / anti-inflammatory effect (in words) (CMKLR1; synthetic peptides, ref [9]): stable agonists of CMKLR1 that induce anti-inflammatory effects

Molecule: CC[C@@H](O)/C=C/C=C\C[C@@H](O)/C=C/C=C/C=C\[C@@H](O)CCCC(=O)O [RvE1, resolvin E1]
- action on CMKLR1 (in words) (CMKLR1; ref [25]–[27]): suggested to act on CMKLR1 to promote the resolution of inflammation

B1: dominant negative form of human Gαi1 (DNGαi1) (protein)
chain: GCTLSAEDKAAVERSKMIDRNLREDGEKAAREVKLLLLGAGESGKNTIVKQMKIIHEAGYSEEECKQYKAVVYSNTIQSIIAIIRAMGRLKIDFGDSARADDARQLFVLAGAAEEGFMTAELAGVIKRLWKDSGVQACFNRSREYQLNDSAAYYLNDLDRIAQPNYIPTQQDVLRTRVKTTGIVETHFTFKDLHFKMFDVGAQRSERKKWIHCFEGVTAIIFCVALSDYDLVLAEDEEMNRMHASMKLFDSICNNKWFTDTSIILFLNKKDLFEEKIKKSPLTICYPEYAGSNTYEEAAAYIQCQFEDLNKRKDTKEIYTHFTCSTDTKNVQFVFDAVTDVIIKNNLKDCGLF
- binding result [1]: binds

B2: IL-10: reference signal molecule to induce the M2-like macrophages (protein, UniProt P22301 19-178, looked up)
Interleukin-10: SPGQGTQSENSCTHFPGNLPNMLRDLRDAFSRVKTFFQMKDQLDNLLLKESLLEDFKGYLGCQALSEMIQFYLEEVMPQAENQDPDIKAHVNSLGENLKTLRLRLRRCHRFLPCENKSKAVEQVKNAFNKLQEKGIYKAMSEFDIFINYIEAYMTMKIRN
- statistical significance of marker changes ([2]; 2-way ANOVA with Dunnett's multiple comparisons vs M0, n=4): statistically insignificant
- CD86 expression (in words) [2, 3]: downregulation
- CD163 expression (in words) [2, 3]: upregulation
- CD206 expression (in words) [2, 3]: upregulation
- macrophage phenotype (in words) ([2]; overall, chemerin9 10 ng/mL, 72 hours): consistent with an anti-inflammatory phenotype
